Experiment [1] deals with p-Akt2 (phospho serine / threonine kinase) (UniProt P31751 1-481).
In experiment [2] the target is L1R, vaccinia virus L1R myristyl protein (vaccinia virus, UniProt P07612 1-250).
Experiment [3] has as its target T1, IL17-F (Interleukin member of the highly homologous IL-17 family) (UniProt Q96PD4 31-163).
T1 sequence (looked up): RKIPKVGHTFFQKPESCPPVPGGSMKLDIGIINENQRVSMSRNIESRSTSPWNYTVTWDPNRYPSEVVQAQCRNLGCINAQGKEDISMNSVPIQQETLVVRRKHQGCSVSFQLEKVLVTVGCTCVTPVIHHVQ

Here are results for 3 molecules from publication PMC4890538 (Angewandte Chemie (International ed. in English), 2015).

The term EC50 denotes the midpoint of the concentration-response curve.

YYTYT [Cy(YYTYT-click)] came in with a half-maximal effective concentration (EC50) in experiment [1] of 122 nM. Turning to DARNI [Cy(DARNI-click)], a half-maximal effect in experiment [2] (EC50) was put at 875 nM. That is a sub-micromolar value.

Consider RRATS [Cy(RRATS-click)], for which the half-maximal effective concentration (EC50) in experiment [3] is 66 nM.
